Target: high-affinity TrkA receptor on the TF-1 cell surface (UniProt P04629)
Experiment: cell-based or functional assay

Sequence of UniProt P04629 (P04629 33-796 limits assumed): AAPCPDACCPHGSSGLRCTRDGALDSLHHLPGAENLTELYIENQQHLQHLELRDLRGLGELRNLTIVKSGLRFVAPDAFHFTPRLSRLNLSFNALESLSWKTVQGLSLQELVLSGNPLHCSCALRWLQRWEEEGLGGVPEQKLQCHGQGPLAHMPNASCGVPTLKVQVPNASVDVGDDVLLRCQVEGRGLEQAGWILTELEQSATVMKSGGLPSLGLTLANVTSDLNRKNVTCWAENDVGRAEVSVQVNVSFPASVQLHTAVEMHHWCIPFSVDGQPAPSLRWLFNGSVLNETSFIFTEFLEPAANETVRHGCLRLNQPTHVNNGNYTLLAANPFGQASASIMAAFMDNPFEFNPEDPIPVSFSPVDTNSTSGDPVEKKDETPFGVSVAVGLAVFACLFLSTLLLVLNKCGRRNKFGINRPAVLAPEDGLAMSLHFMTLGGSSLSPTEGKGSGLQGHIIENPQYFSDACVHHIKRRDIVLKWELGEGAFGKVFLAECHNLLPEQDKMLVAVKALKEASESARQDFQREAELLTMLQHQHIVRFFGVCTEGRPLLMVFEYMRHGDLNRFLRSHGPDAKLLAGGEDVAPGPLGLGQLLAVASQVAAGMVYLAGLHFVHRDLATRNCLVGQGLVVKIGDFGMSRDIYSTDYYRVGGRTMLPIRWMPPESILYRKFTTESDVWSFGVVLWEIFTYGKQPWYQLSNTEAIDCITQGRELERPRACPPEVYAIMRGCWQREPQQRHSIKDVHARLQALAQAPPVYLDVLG

## rhNGF-CTP (long-lasting recombinant human nerve growth factor; mature NGF-CTP) (ligand)
  specific activity in the TF-1 cell proliferation assay (MTT): 1.2e+06 AU mg^-1

Reference: patent US20180236031A1
